# According to patent US20210079558A1:
# Biological target: Protein A expressed on Staphylococcus aureus (Staphylococcus aureus) (UniProt P38507)
# Test: yeast display; one round of selection with cell-surface biotinylated S. aureus and magnetic streptavidin-coated beads; GFP+ yeast counted by flow cytometry
substance,measurement,value
"Fc region of the human IgG1 protein N297Q (aglycosylated) mutant, displayed on the surface of yeast",fold enrichment of GFP+ yeast,30 fold
